A short description of series [1]: not described (stated in discussion only). Conditions: glycan lost; control: wild type MARCO.
The nature of series [2]: live immunostaining; surface biotinylation pull-down. The note with it: glycan lost; control: wild type SR-AI.
Series [3] in a line: FAM-oAβ uptake, confocal fluorescence quantification, COS-7. The note with it: glycan lost; control: wild type SR-AI.

B1: MARCO: N83Q-136Q (protein)
parent chain: MRNKKILKEDELLSETQQAAFHQIAMEPFEINVPKPKRRNGVNFSLAVVVIYLILLTAGAGLLVVQVLNLQARLRVLEMYFLNDTLAAEDSPSFSLLQSAHPGEHLAQGASRLQVLQAQLTWVRVSHEHLLQRVDNFTQNPGMFRIKGEQGAPGLQGHKGAMGMPGAPGPPGPPAEKGAKGAMGRDGATGPSGPQGPPGVKGEAGLQGPQGAPGKQGATGTPGPQGEKGSKGDGGLIGPKGETGTKGEKGDLGLPGSKGDRGMKGDAGVMGPPGAQGSKGDFGRPGPPGLAGFPGAKGDQGQPGLQGVPGPPGAVGHPGAKGEPGSAGSPGRAGLPGSPGSPGATGLKGSKGDTGLQGQQGRKGESGVPGPAGVKGEQGSPGLAGPKGAPGQAGQKGDQGVKGSSGEQGVKGEKGERGENSVSVRIVGSSNRGRAEVYYSGTWGTICDDEWQNSDAIVFCRMLGYSKGRALYKVGAGTGQIWLDNVQCRGTESTLWSCTKNSWGHHDCSHEEDAGVECSV
In the case of B1, the localisation_or_trafficking entry in series [1] is reported as “abolishes”.

B2: SR-AI (scavenger receptor A type I): N143Q-N184Q (protein)
parent chain: MEQWDHFHNQQEDTDSCSESVKFDARSMTALLPPNPKNSPSLQEKLKSFKAALIALYLLVFAVLIPLIGIVAAQLLKWETKNCSVSSTNANDITQSLTGKGNDSEEEMRFQEVFMEHMSNMEKRIQHILDMEANLMDTEHFQNFSMTTDQRFNDILLQLSTLFSSVQGHGNAIDEISKSLISLNTTLLDLQLNIENLNGKIQENTFKQQEEISKLEERVYNVSAEIMAMKEEQVHLEQEIKGEVKVLNNITNDLRLKDWEHSQTLRNITLIQGPPGPPGEKGDRGPTGESGPRGFPGPIGPPGLKGDRGAIGFPGSRGLPGYAGRPGNSGPKGQKGEKGSGNTLTPFTKVRLVGGSGPHEGRVEILHSGQWGTICDDRWEVRVGQVVCRSLGYPGVQAVHKAAHFGQGTGPIWLNEVFCFGRESSIEECKIRQWGTRACSHSEDAGVTCTL
Turning to B2, the localisation_or_trafficking result in series [2] is recorded as “no change”. For the same protein, the “other: ligand internalisation” value in series [3] is given as “decreases”.

B3: SR-AI (scavenger receptor A type I): N221Q (protein)
parent chain: MEQWDHFHNQQEDTDSCSESVKFDARSMTALLPPNPKNSPSLQEKLKSFKAALIALYLLVFAVLIPLIGIVAAQLLKWETKNCSVSSTNANDITQSLTGKGNDSEEEMRFQEVFMEHMSNMEKRIQHILDMEANLMDTEHFQNFSMTTDQRFNDILLQLSTLFSSVQGHGNAIDEISKSLISLNTTLLDLQLNIENLNGKIQENTFKQQEEISKLEERVYNVSAEIMAMKEEQVHLEQEIKGEVKVLNNITNDLRLKDWEHSQTLRNITLIQGPPGPPGEKGDRGPTGESGPRGFPGPIGPPGLKGDRGAIGFPGSRGLPGYAGRPGNSGPKGQKGEKGSGNTLTPFTKVRLVGGSGPHEGRVEILHSGQWGTICDDRWEVRVGQVVCRSLGYPGVQAVHKAAHFGQGTGPIWLNEVFCFGRESSIEECKIRQWGTRACSHSEDAGVTCTL
Consider B3, for which, in series [2], the localisation_or_trafficking entry is “no change”. Besides, in series [3], the “other: ligand internalisation” value was “no change”.

B4: SR-AI (scavenger receptor A type I): N102Q-N184Q (protein)
parent chain: MEQWDHFHNQQEDTDSCSESVKFDARSMTALLPPNPKNSPSLQEKLKSFKAALIALYLLVFAVLIPLIGIVAAQLLKWETKNCSVSSTNANDITQSLTGKGNDSEEEMRFQEVFMEHMSNMEKRIQHILDMEANLMDTEHFQNFSMTTDQRFNDILLQLSTLFSSVQGHGNAIDEISKSLISLNTTLLDLQLNIENLNGKIQENTFKQQEEISKLEERVYNVSAEIMAMKEEQVHLEQEIKGEVKVLNNITNDLRLKDWEHSQTLRNITLIQGPPGPPGEKGDRGPTGESGPRGFPGPIGPPGLKGDRGAIGFPGSRGLPGYAGRPGNSGPKGQKGEKGSGNTLTPFTKVRLVGGSGPHEGRVEILHSGQWGTICDDRWEVRVGQVVCRSLGYPGVQAVHKAAHFGQGTGPIWLNEVFCFGRESSIEECKIRQWGTRACSHSEDAGVTCTL
For the protein B4, in series [3], the “other: ligand internalisation” value is on record as “no change”.

B5: SR-AI (scavenger receptor A type I): N184Q (protein)
parent chain: MEQWDHFHNQQEDTDSCSESVKFDARSMTALLPPNPKNSPSLQEKLKSFKAALIALYLLVFAVLIPLIGIVAAQLLKWETKNCSVSSTNANDITQSLTGKGNDSEEEMRFQEVFMEHMSNMEKRIQHILDMEANLMDTEHFQNFSMTTDQRFNDILLQLSTLFSSVQGHGNAIDEISKSLISLNTTLLDLQLNIENLNGKIQENTFKQQEEISKLEERVYNVSAEIMAMKEEQVHLEQEIKGEVKVLNNITNDLRLKDWEHSQTLRNITLIQGPPGPPGEKGDRGPTGESGPRGFPGPIGPPGLKGDRGAIGFPGSRGLPGYAGRPGNSGPKGQKGEKGSGNTLTPFTKVRLVGGSGPHEGRVEILHSGQWGTICDDRWEVRVGQVVCRSLGYPGVQAVHKAAHFGQGTGPIWLNEVFCFGRESSIEECKIRQWGTRACSHSEDAGVTCTL
Turning to B5, the localisation_or_trafficking entry in series [2] is given as “no change”. For the same protein, the “other: ligand internalisation” value in series [3] is “no change”.

B6: SR-AI (scavenger receptor A type I): N102Q-N143Q (protein)
parent chain: MEQWDHFHNQQEDTDSCSESVKFDARSMTALLPPNPKNSPSLQEKLKSFKAALIALYLLVFAVLIPLIGIVAAQLLKWETKNCSVSSTNANDITQSLTGKGNDSEEEMRFQEVFMEHMSNMEKRIQHILDMEANLMDTEHFQNFSMTTDQRFNDILLQLSTLFSSVQGHGNAIDEISKSLISLNTTLLDLQLNIENLNGKIQENTFKQQEEISKLEERVYNVSAEIMAMKEEQVHLEQEIKGEVKVLNNITNDLRLKDWEHSQTLRNITLIQGPPGPPGEKGDRGPTGESGPRGFPGPIGPPGLKGDRGAIGFPGSRGLPGYAGRPGNSGPKGQKGEKGSGNTLTPFTKVRLVGGSGPHEGRVEILHSGQWGTICDDRWEVRVGQVVCRSLGYPGVQAVHKAAHFGQGTGPIWLNEVFCFGRESSIEECKIRQWGTRACSHSEDAGVTCTL
B6: the localisation_or_trafficking entry in series [2] is listed as “no change”. Further, the “other: ligand internalisation” value in series [3] was “decreases”.

B7: SR-AI (scavenger receptor A type I): N82Q (protein)
parent chain: MEQWDHFHNQQEDTDSCSESVKFDARSMTALLPPNPKNSPSLQEKLKSFKAALIALYLLVFAVLIPLIGIVAAQLLKWETKNCSVSSTNANDITQSLTGKGNDSEEEMRFQEVFMEHMSNMEKRIQHILDMEANLMDTEHFQNFSMTTDQRFNDILLQLSTLFSSVQGHGNAIDEISKSLISLNTTLLDLQLNIENLNGKIQENTFKQQEEISKLEERVYNVSAEIMAMKEEQVHLEQEIKGEVKVLNNITNDLRLKDWEHSQTLRNITLIQGPPGPPGEKGDRGPTGESGPRGFPGPIGPPGLKGDRGAIGFPGSRGLPGYAGRPGNSGPKGQKGEKGSGNTLTPFTKVRLVGGSGPHEGRVEILHSGQWGTICDDRWEVRVGQVVCRSLGYPGVQAVHKAAHFGQGTGPIWLNEVFCFGRESSIEECKIRQWGTRACSHSEDAGVTCTL
Take B7: the localisation_or_trafficking result in series [2] is recorded as “no change”. Besides, in series [3], the “other: ligand internalisation” value is “no change”.

B8: SR-AI (scavenger receptor A type I): N249Q (protein)
parent chain: MEQWDHFHNQQEDTDSCSESVKFDARSMTALLPPNPKNSPSLQEKLKSFKAALIALYLLVFAVLIPLIGIVAAQLLKWETKNCSVSSTNANDITQSLTGKGNDSEEEMRFQEVFMEHMSNMEKRIQHILDMEANLMDTEHFQNFSMTTDQRFNDILLQLSTLFSSVQGHGNAIDEISKSLISLNTTLLDLQLNIENLNGKIQENTFKQQEEISKLEERVYNVSAEIMAMKEEQVHLEQEIKGEVKVLNNITNDLRLKDWEHSQTLRNITLIQGPPGPPGEKGDRGPTGESGPRGFPGPIGPPGLKGDRGAIGFPGSRGLPGYAGRPGNSGPKGQKGEKGSGNTLTPFTKVRLVGGSGPHEGRVEILHSGQWGTICDDRWEVRVGQVVCRSLGYPGVQAVHKAAHFGQGTGPIWLNEVFCFGRESSIEECKIRQWGTRACSHSEDAGVTCTL
As to B8, the localisation_or_trafficking entry in series [2] was “no change”. Besides, the “other: ligand internalisation” value in series [3] is on record as “no change”.

B9: SR-AI (scavenger receptor A type I): N143Q (protein)
parent chain: MEQWDHFHNQQEDTDSCSESVKFDARSMTALLPPNPKNSPSLQEKLKSFKAALIALYLLVFAVLIPLIGIVAAQLLKWETKNCSVSSTNANDITQSLTGKGNDSEEEMRFQEVFMEHMSNMEKRIQHILDMEANLMDTEHFQNFSMTTDQRFNDILLQLSTLFSSVQGHGNAIDEISKSLISLNTTLLDLQLNIENLNGKIQENTFKQQEEISKLEERVYNVSAEIMAMKEEQVHLEQEIKGEVKVLNNITNDLRLKDWEHSQTLRNITLIQGPPGPPGEKGDRGPTGESGPRGFPGPIGPPGLKGDRGAIGFPGSRGLPGYAGRPGNSGPKGQKGEKGSGNTLTPFTKVRLVGGSGPHEGRVEILHSGQWGTICDDRWEVRVGQVVCRSLGYPGVQAVHKAAHFGQGTGPIWLNEVFCFGRESSIEECKIRQWGTRACSHSEDAGVTCTL
As for B9, the localisation_or_trafficking result in series [2] is “no change”. For the same protein, the “other: ligand internalisation” value in series [3] is recorded as “no change”.

B10: SR-AI (scavenger receptor A type I): N102Q (protein)
parent chain: MEQWDHFHNQQEDTDSCSESVKFDARSMTALLPPNPKNSPSLQEKLKSFKAALIALYLLVFAVLIPLIGIVAAQLLKWETKNCSVSSTNANDITQSLTGKGNDSEEEMRFQEVFMEHMSNMEKRIQHILDMEANLMDTEHFQNFSMTTDQRFNDILLQLSTLFSSVQGHGNAIDEISKSLISLNTTLLDLQLNIENLNGKIQENTFKQQEEISKLEERVYNVSAEIMAMKEEQVHLEQEIKGEVKVLNNITNDLRLKDWEHSQTLRNITLIQGPPGPPGEKGDRGPTGESGPRGFPGPIGPPGLKGDRGAIGFPGSRGLPGYAGRPGNSGPKGQKGEKGSGNTLTPFTKVRLVGGSGPHEGRVEILHSGQWGTICDDRWEVRVGQVVCRSLGYPGVQAVHKAAHFGQGTGPIWLNEVFCFGRESSIEECKIRQWGTRACSHSEDAGVTCTL
Regarding B10, in series [2], the localisation_or_trafficking entry is recorded as “no change”. For the same protein, in series [3], the “other: ligand internalisation” value is recorded as “no change”.

B11: SR-AI (scavenger receptor A type I): N267Q (protein)
parent chain: MEQWDHFHNQQEDTDSCSESVKFDARSMTALLPPNPKNSPSLQEKLKSFKAALIALYLLVFAVLIPLIGIVAAQLLKWETKNCSVSSTNANDITQSLTGKGNDSEEEMRFQEVFMEHMSNMEKRIQHILDMEANLMDTEHFQNFSMTTDQRFNDILLQLSTLFSSVQGHGNAIDEISKSLISLNTTLLDLQLNIENLNGKIQENTFKQQEEISKLEERVYNVSAEIMAMKEEQVHLEQEIKGEVKVLNNITNDLRLKDWEHSQTLRNITLIQGPPGPPGEKGDRGPTGESGPRGFPGPIGPPGLKGDRGAIGFPGSRGLPGYAGRPGNSGPKGQKGEKGSGNTLTPFTKVRLVGGSGPHEGRVEILHSGQWGTICDDRWEVRVGQVVCRSLGYPGVQAVHKAAHFGQGTGPIWLNEVFCFGRESSIEECKIRQWGTRACSHSEDAGVTCTL
Consider B11, for which, in series [2], the localisation_or_trafficking result is given as “no change”. In addition, in series [3], the “other: ligand internalisation” value is “no change”.
